Reference: patent US20240122985A1, “ANTIBODIES, COMBINATIONS COMPRISING ANTIBODIES, BIOMARKERS, USES & METHODS” (KYMAB LIMITED, priority 2016, published 2024)
One block for each molecule: values may come before it.

How the values were obtained:
[1] = tested on: Rhesus Macaque Graft versus Host Disease (GvHD) model; details: Example 9, post-HSCT prophylaxis, Rhesus macaque (FIG. 7)
Text: The effectiveness of antibody 2D10 IgG4PE as a monotherapy prophylactic for the prevention of GvHD was examined in a Rhesus Macaque model of haploidentical hematopoietic stem cell transplantation (HSCT).
All transplants were between half-sibling pairs that are mismatched at one MHC haplotype (“haploidentical-HCTs”). Recipient animals had irradiation based pre-myeloablative pre-transplant conditioning using a linear accelerator. Dose rate: 7cGy/min. Dose 1020 cGy given in 4 fractions. The leukapheresis donor animal underwent GCSF mobilisation and underwent leukapheresis using a Spectra Optia apheresis machine.
2D10 IgG4PE was dosed at 10 mg/kg i.v. according to a planned dosing schedule to take place on Day −2, Day+5, Day+12, Day+19, Day+26, Day+33, Day+40, Day+47 post-transplant.
Samples were taken during the course of the study to monitor donor chimerism (Table 4) and white blood cell counts. The primary end point was based on survival, with a survival to 15 days deemed to be a sign of successful prophylactic therapy (and compared to the documented survival of 6-8 days with no prophylaxis; Miller et al. 2010, supra). Though full pathology and histology with GvHD grading scores, markers of T-cell proliferation and activation (such as Ki-67 and granzyme B) and gene array analysis are planned, they were not available for inclusion at the time of drafting.
Scoring of clinical symptoms was based on observational assessments and clinical chemistry, classified according to the criteria set out in Table 5.
A further rhesus macaque GvHD study was conducted to determine the effect of combined post-HSCT prophylaxis with 2D10 IgG4PE and rapamycin. The study was performed as described in Example 7, with dosing as follows: 2D10 IgG4PE was administered i.v. at 10 mg/kg on Day −2, Day +5, Day+12, Day+19, Day+26, Day+33, Day+40, Day+47 and Day+56 post-transplant. Rapamycin was administered at a loading dose of 0.1 mg/kg i.m. on Day −14, followed by daily i.m. maintenance doses of 0.025 mg/kg until the scheduled termination of the study at Day+100. Rapamycin dosing was adjusted to maintain serum trough levels within the range 5-15 ng/mL.
This was a cohort study in NHP designed to determine the clinical, immunologic and molecular outcomes of OX40L blockade during allogeneic HCT. Two cohorts of transplant recipients were studied: (1) Allogeneic transplants using the OX40L-blocking human IgG4-PE antibody 1D05 (described as ‘KY1005’ in this Example 11) as monotherapy for GVHD prophylaxis (abbreviated as ‘KY1005’; n=4). KY1005 was given at a dose of 10 mg/kg starting on Days −2 and then once weekly until discontinuation on Days 54 (FIG. 8E). […] (2) Allogeneic transplants using KY1005 in combination with Sirolimus (Rapamycin) ([…]) for GVHD prophylaxis (abbreviated as ‘KY1005/Siro’; n=5). KY1005 was given at a dose of 10 mg/kg starting on Days −2 and then once weekly until discontinuation on Days 54 (FIG. 8P). […] These two OX40L-blockade groups were compared to the following cohorts, aspects of which have been described previously (Furlan et al., 2015; Furlan et al., 2016; Miller et al., 2010) (1) Autologous transplants (abbreviated as ‘Auto’, n=6 for clinical and flow cytometric data and n=4 for transcriptomic analysis) (2); Allogeneic transplants with no GVHD prophylaxis (abbreviated as‘No Rx’, n=11 for clinical and flow cytometric data and n=4 for transcriptomic analysis). (3) Allogeneic transplants using Sirolimus monotherapy for GVHD prophylaxis (LC laboratories, abbreviated as ‘Siro’, n=11 for flow cytometric analysis, n=4 for transcriptomic analysis).

recombinant hOX40L = target: T1, recombinant hOX40L (Homo sapiens, UniProt P23510); assay: Surface plasmon resonance, apparent affinity to human OX40L; type: binding; details: SPR, 25° C.; CNROR = Cannot resolve off-rate
T1 construct: cDNA encoding the extracellular domain of human OX40L was cloned into a pREP4 expression plasmid; isoleucine zipper (N); made in house; host or cells: FreeStyle CHO-S (transient)
Protocol: (§1) SPR analysis was carried out using the ProteOn™ XPR36 Array System (BioRad). Anti-mouse IgG (GE Healthcare BR-1008-38) was immobilised on a GLM biosensor surface using amine coupling, the surface was then blocked using 1 M ethanolamine. Test antibodies were captured on this surface and recombinant hOX40L (human and rhesus) were used at a single concentration of 256 nM, binding sensorgrams were double referenced using a buffer injection (i.e. 0 nM) to remove baseline drift and injection artefacts. Apparent affinities for the OX40L-antibody interaction were determined using the 1:1 model inherent to the ProteOn XPR36 analysis software. The assay was run using HBS-EP (Teknova) as running buffer and carried out at 25° C.

Rhesus monkey OX40L = assay: Surface plasmon resonance, apparent affinity to rhesus OX40L; type: binding, Rhesus (Macaca mulatta); details: SPR, 25° C.; CNROR = Cannot resolve off-rate
Protocol: as §1

CHO-S expressed hOX40L = target: T2, CHO-S expressed hOX40L (Homo sapiens, UniProt P23510); assay: Binding to CHO-S expressed hOX40L and receptor neutralisation (FACS); type: cell-based
T2 construct: CHO-S cells (optionally transfected with full length human OX40L); expressed in transfected cells
T2 sequence (P23510 1-183): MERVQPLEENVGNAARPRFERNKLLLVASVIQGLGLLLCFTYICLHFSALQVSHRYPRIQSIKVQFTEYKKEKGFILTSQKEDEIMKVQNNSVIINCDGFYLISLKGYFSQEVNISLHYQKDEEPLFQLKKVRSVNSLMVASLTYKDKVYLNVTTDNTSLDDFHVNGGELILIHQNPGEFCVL
Protocol: CHO-S cells expressing hOX40L or untransfected CHO-S cells, diluted in FACS buffer (PBS+1% w/v BSA+0.1% w/v NaN3) were distributed to a 96 well V-bottom plate (Greiner) at a density of 1×10^5 cells per well. Cells were washed with 150 μL of PBS and centrifuged at 300×g for 3 min. Supernatant was aspirated and 150 μL of PBS added. This wash step was repeated.
25 μL of hybridoma supernatant or purified antibody from hybridoma supernatant diluted in FACS buffer was added to the washed cells and incubated for 10-15 minutes. Reference Antibody or mouse IgG1 control antibody (Sigma) were diluted in FACS buffer to 20 μg/mL and 25 μL added to cells. 25 μL of human OX40R Fc (in-house) diluted to 1000 ng/mL in FACS buffer were then added to wells. Cells were incubated at 4° C. for 30 minutes.
To detect antibody and receptor binding, 50 μL of Goat anti-human IgG-PE (Jackson ImmunoResearch) and APC anti-mouse IgG (Jackson ImmunoResearch) diluted 1 in 500 in FACS buffer was added to the cells. Cells were incubated 30 minutes at 4° C. in the dark.
To fix cells 100 μL 2% v/v paraformaldehyde was added and cells incubated for 30 minutes at 4° C., cells were pelleted by centrifugation 300×g and the plates and resuspended in 50 μL of FACS buffer. PE and APC signal intensity (geomean) was measured by flow cytometry using a BD FACS Array instrument.
% of control binding was calculated using geomean fluorescence as described in equation 1 where total binding was defined as reference antibody at 10 μg/mL and non-specific binding as mouse IgG1 antibody at 10 μg/mL. % receptor binding was calculated using Equation 3.

Sequence of Rhesus monkey OX40L (as listed by the source): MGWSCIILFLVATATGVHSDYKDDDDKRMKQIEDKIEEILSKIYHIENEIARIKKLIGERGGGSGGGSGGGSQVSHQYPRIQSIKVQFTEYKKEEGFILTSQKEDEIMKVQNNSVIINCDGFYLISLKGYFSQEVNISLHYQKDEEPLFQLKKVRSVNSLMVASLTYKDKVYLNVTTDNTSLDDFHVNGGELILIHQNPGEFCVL
T1 sequence (P23510 with tags, fused parts or gaps): as the sequence (as listed by the source) above, with Q77R, E95K counted along it

Molecule: CO[C@H]1C[C@@H]2CC[C@@H](C)[C@@](O)(O2)C(=O)C(=O)N2CCCC[C@H]2C(=O)O[C@H]([C@H](C)C[C@@H]2CC[C@@H](O)[C@H](OC)C2)CC(=O)[C@H](C)/C=C(\C)[C@@H](O)[C@@H](OC)C(=O)[C@H](C)C[C@H](C)/C=C/C=C/C=C/1C [rapamycin, rapamycin (sirolimus), reference compound]
- median survival time, MST [1]: 17 days

B1: 2D10 (hybridoma): murine/human chimeric anti-OX40L antibody purified from hybridoma supernatant (antibody, V domains shown)
VH: EVQLVESGGGLVQPGGSLRLSCAASGFTFSNYAMNWVRQAPGKGLEWVSTISGSGGATRYADSVKGRFTISRDNSRNTVYLQMNSLRVEDTAVFYCTKDRLIMATVRGPYYYGMDVWGQGTTVTVSS
VL: DIQMTQSPSSLSASVGDRVTITCRASQSISSYLNWYQQKPGKAPNLLIYAASSLQSGVPSRFSGSGSETDFTLTISSLQPEDFATYYCQQSHSVSFTFGPGTKVDIK
- Apparent Affinity hOX40L (nM) (recombinant hOX40L): CNROR
- Apparent Affinity RhsOX40L (nM) (Rhesus monkey OX40L): CNROR
- FACS Binding (CHO-S expressed hOX40L): YES

Second part, the molecule after the results:

- Apparent Affinity hOX40L (nM) (recombinant hOX40L): CNROR
- Apparent Affinity RhsOX40L (nM) (Rhesus monkey OX40L): CNROR
- FACS Binding (CHO-S expressed hOX40L): YES
B2: 10A07 (hybridoma): murine/human chimeric anti-OX40L antibody purified from hybridoma supernatant (antibody, V domains shown)
VH: EVQLVESGGVLVQPGGSLRLSCAASGFTFSSYIMTWVRQAPGKGLEWVSGISGSGGGTYYADSMKGRFTISRDNSKNTLYLQMNSLRVEDTAVYYCAKDRLGPITLVRGGYYYGMDVWGQGTTVTVSS
VL: DIQMTQSPSSLSASVGDRVTITCRASQSISDYLNWYQQKPGKAPKFLIYAASSLQSGVPSRFSGSGSGTDFTLTVSSLQPEDFATYYCQQSYSTPRTFGQGTRVEIK

- Apparent Affinity hOX40L (nM) (recombinant hOX40L): CNROR
- Apparent Affinity RhsOX40L (nM) (Rhesus monkey OX40L): CNROR
B3: 10A07 (human): fully human anti-human OX40L monoclonal antibody; VH Seq ID No:2, VL Seq ID No:16 (antibody, V domains shown)
VH: B2 VH
VL: B2 VL
modifications: 10A07 - VH Amino Acid Sequence; 10A07 - VL Amino Acid Sequence

- FACS Binding (CHO-S expressed hOX40L): YES
B4: 9H04 (hybridoma): anti-OX40L antibody from hybridoma; VH Seq ID No:66, VL Seq ID No:80 (antibody, V domains shown)
VH: QVQLVESGGGLVKPGGSLRLSCAASRFTLSDYYMTWIRQAPGKGLEWVSYISSSGNTIYYADSVKGRFTISRDNAKNSLYLQMNSLRAEDTAVYYCARDLSGSYWDYYYGMDVWGQGTTVTVSS
VL: AIQLTQSPSSLSTSVGDRVTIACRASQGINNALAWYQQKPGKAPKLLIYDASSLESGVPSRFSGSGSGTDFTLTISSLQPEDFATYYCQQFNSYPRTFGQGTKVEIK
modifications: 09H04 - VH Amino Acid Sequence; 09H04 - VL Amino Acid Sequence
